Key:
Assay in all cases: pull-down binding Z-score (relative to library population); higher = stronger binding
Conditions in all cases: RNA library: Library-2
[1] = test system: TO-N3-2 (biotin conjugate)
Method in brief: (§1)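 Streptavidin beads bearing 100 pmol of a biotin-conjugated small molecule were incubated for 60 min at 25 °C with 1 μg of heat-folded, Cy5- or Cy3-end-labelled RNA library in phosphate/NaCl/KCl buffer. Hot SDS eluted the RNA that stayed bound after three washes, and this RNA was hybridised for 20 h at 55.5 °C to a DNA barcode microarray. Binding was expressed as a Z-score against the library mean and standard deviation, after subtraction of a beads-only signal and trimmed averaging of barcoded replicate probes.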

[2] = test system: TO-3-N3 (biotin conjugate)
Method in brief: as §1

[3] = test system: TO-3-N3-2 (biotin conjugate)
Method in brief: as §1

TO-N3 (biotin conjugate) = test system: TO-N3 (biotin conjugate)
Method in brief: as §1

Row | Sequence | pull-down binding Z-score [1] | pull-down binding Z-score [2] | pull-down binding Z-score [3] | pull-down binding Z-score (TO-N3 (biotin conjugate))
1 | CCCAAUGUUGUUAAACCACACGAAAAGGG [IAV_invivo_PA_3_Motif_15+IAV_invivo_PA_3_Motif_15] | -0.323 | 0.621 | 0.104 | 0.504
2 | CCCAGAUGAAGGCACAGCUGGAGUGGAGUCCGCUGUUCUGAGGGGAUUCCUCAUUCUGGG [IAV_invivo_PB2_1_Motif_33+IAV_invivo_PB2_1_Motif_33] | 1.54 | -0.0325 | 0.166 | 0.671
3 | CCCAGUGCGGGG [IAV_invivo_NP_5_Motif_5+IAV_invivo_NP_5_Motif_5] | -0.984 | -0.794 | -0.664 | -1.12
4 | CCCAUCCGUGGGUGGG [IAV_invivo_NA_6_Motif_4+IAV_invivo_NA_6_Motif_4] | -0.95 | -0.525 | -0.239 | -0.897
5 | CCCAUUGGAGAGUCCCCCAAAGGAGUGGAGGAAAGUUCCAUUGGG [IAV_invivo_PA_3_Motif_26+IAV_invivo_PA_3_Motif_26] | 0.298 | -0.0565 | -0.0971 | -0.0467
6 | CCCCAAAAGAAAUUAUCUUCUUAGAGGG | 0.109 | -0.165 | -0.623 | 0.286
7 | CCCCACUACAAUUGGGG [IAV_invivo_HA_4_Motif_4+IAV_invivo_HA_4_Motif_4] | -1.27 | 0.245 | -0.517 | -0.0989
8 | CCCCAGGGAUGCAAAUAAGGGG [IAV_invivo_PB1_2_Motif_14+IAV_invivo_PB1_2_Motif_14] | 0.241 | 0.0403 | 0.163 | -0.0747
9 | CCCCGGCCCCGGCCCCGGCCCCGG [r(CCCCGG)4] | 1.48 | 0.661 | 0.272 | 0.747
10 | CCCGGAAAUAGCAGGAAGACCCAAAGUAAGAGAUCAAGCUGGG [IAV_invivo_HA_4_Motif_10+IAV_invivo_HA_4_Motif_10] | 0.433 | -0.309 | 0.505 | -0.157
11 | CCCUAAGACUAAAAAUGUUACAAAAGAAAAUGACUCUAAAGAGGGUUUUUUCACUUACAUUUGUGGG [DMSMaPseq_invitro_SARS-CoV-2_Motif_371] | -0.589 | -0.845 | -0.271 | -1.03
12 | CCCUGAACACAAUGACCAAAGAUGCUGAGAGAGGG [IAV_invivo_PB1_2_Motif_12+IAV_invivo_PB1_2_Motif_12] | 0.884 | -0.218 | 0.103 | 0.143
13 | CCGAAAUUAUGUCUUUACUGGUUAUCGUGUAACUAAAAACAGUAAAGUACAAAUAGG | -0.428 | -0.303 | -0.0158 | -0.399
14 | CCGAAUACCAUAAUGAAUCUGGCUUGAAAACCAUUCUUCGUAAGGGUGGUCGCACUAUUGCCUUUGG [DMSMaPseq_invitro_SARS-CoV-2_Multi_5_ComplexLevel_1] | 0.178 | -0.576 | -0.063 | -0.257
15 | CCGGUAAGGACGAUACUUACCUG [U1snRNP5ss-23] | -0.181 | 0.363 | -0.205 | 0.0948
16 | CCUAAACGAACAUGAAAUUUCUUGUUUUCUUAGG | -0.729 | -0.979 | -0.593 | -1.08
17 | CCUAAAGUGAAGUAUUUAUACUUUAUUAAAGG [DMSMaPseq_invitro_SARS-CoV-2_Motif_232] | -0.916 | 0.463 | -0.181 | 0.411
18 | CCUAAUGGAUGG [IAV_invivo_NA_6_Motif_15+IAV_invivo_NA_6_Motif_15] | -0.501 | -0.555 | -0.746 | -0.777
19 | CCUACUAAAAAGG | -0.0122 | 0.907 | 0.2 | 0.766
20 | CCUACUGAUGG [IAV_invivo_PA_3_Motif_12+IAV_invivo_PA_3_Motif_12] | -0.632 | 0.0894 | -0.207 | -0.319
21 | CCUAUACUGUUACUAGAUCAGGCAUUAGUGUCUGAUGUUGGUGAUAGUGCGG [DMSMaPseq_invitro_SARS-CoV-2_Motif_147] | -0.184 | 0.0141 | 0.0824 | 0.0062

Row | Sequence | pull-down binding Z-score [1] | pull-down binding Z-score [2] | pull-down binding Z-score [3] | pull-down binding Z-score (TO-N3 (biotin conjugate))
22 | CCUAUCAAUGG [IAV_invivo_PB2_1_Motif_26+IAV_invivo_PB2_1_Motif_26] | -0.376 | 0.191 | -0.212 | 0.11
23 | CCUCGUACAAAAUUUUCAAGAUCGAAAAGGGG [IAV_invivo_NA_6_Motif_10+IAV_invivo_NA_6_Motif_10] | -0.605 | -0.278 | 0.159 | -0.362
24 | CCUCUAAAAGCCCCAAAAGAAAUUAUCUUCUUAGAGGGAGAAACACUUCCCACAGAAGUGUUAACAGAGG | 0.314 | -0.556 | -0.139 | -0.162
25 | CCUCUGACUAAGGGG [IAV_invivo_M1_M2_7_Motif_4+IAV_invivo_M1_M2_7_Motif_4] | -1.25 | -0.159 | -0.414 | -0.504
26 | CCUCUUGAGUGCAUUAAAGACCUUCUAGCACGUGCUGGUAAAGCUUCAUGCACUUUGUCCGAACAACUGGACUUUAUUGACACUAAGAGG [SHAPE_invitro_SARS-CoV-2_Multi_2_ComplexLevel_1] | 0.844 | 0.756 | -0.0693 | 0.899
27 | CCUGAAUCUUGG [IAV_invivo_PB1_2_Motif_21+IAV_invivo_PB1_2_Motif_21] | -0.502 | -0.834 | -0.491 | -0.925
28 | CCUGACUUAAAUGGUGAUGUGGUGGCUAUUGAUUAUAAACACUACACACCCUCUUUUAAGAAAGG | -0.275 | -0.161 | 0.00798 | -0.206
29 | CCUGCACCACGCACAUUGCUAACUAAGG [SHAPE_invitro_SARS-CoV-2_Motif_318] | 0.0122 | -0.429 | -0.173 | -0.204
30 | CCUGCCUGCCUGCCUG [r(CCUG)4] | 0.703 | 0.588 | 0.0557 | 0.872
31 | CCUGGUCAUGCAGAUCUCAGUGCCAAGGAGGCACAGGAUGUAAUCAUGGAAGUUGUUUUCCCUAACGAAGUGGGAGCCAGG | 0.44 | -0.749 | -0.23 | -0.414
32 | CCUGUGAACAGAUUGCUGACUCCCAGCAUCGGUCUCAUAGG [IAV_invivo_M1_M2_7_Motif_10+IAV_invivo_M1_M2_7_Motif_10] | -0.458 | -0.767 | -0.605 | -0.943
33 | CCUUACCCAGAUCCAUCAAGAAUCCUAGGGGCCGG | 0.308 | 0.842 | 0.14 | 0.876
34 | CCUUAUAAUUCACAGAAUGCUGUAGCCUCAAAGAUUUUGGGACUACCAACUCAAACUGUUGAUUCAUCACAGG [DMSMaPseq_invitro_SARS-CoV-2_Motif_319] | 0.0157 | -0.541 | -0.324 | -0.341
35 | CCUUCACACUCAAAGGCGGUGCACCAACAAAGGUUACUUUUGGUGAUGACACUGUGAUAGAAGUGCAAGG [SHAPE_invitro_SARS-CoV-2_Motif_51] | -0.0884 | -0.728 | -0.155 | -0.605
36 | CCUUCACUGUAGAAAAAGG [SHAPE_invivo_SARS-CoV-2_Motif_423] | -0.52 | -0.468 | -0.29 | -0.772
37 | CCUUGCACCUAAUAUGAUGGUAACAAACAAUACCUUCACACUCAAAGGCGGUGCACCAACAAAGGUUACUUUUGGUGAUGACACUGUGAUAGAAGUGCAAGG [SHAPE_invivo_SARS-CoV-2_Multi_7_ComplexLevel_1] | -0.526 | -0.657 | -0.454 | -0.857
38 | CCUUGCGAAAGGAGAGAAGGCUAAUGUGCUAAUUGGGCAAGG [IAV_invivo_PB2_1_Motif_34+IAV_invivo_PB2_1_Motif_34] | 0.837 | -0.245 | 0.584 | 0.291
39 | CCUUGUAGGUUUGUUACAGACACACCUAAAGG | -0.614 | -0.369 | -0.655 | -0.262
40 | CCUUUAGUACCUUUCUGGAUAACAAUUGCUUAUAUCAUUUGUAUUUCCACAAAGCAUUUCUAUUGG | -0.78 | -0.884 | -0.843 | -1.06
41 | CGAGUCUCUGAAACUCUACAGAGAUUCG [IAV_invivo_NS1_NEP_8_Motif_12+IAV_invivo_NS1_NEP_8_Motif_12] | -0.636 | -1 | -0.606 | -0.524
42 | CGCAGGGAAUGGAUAAUCUUGCCUGCG | -0.759 | -0.486 | -0.153 | -0.607

Row | Sequence | pull-down binding Z-score [1] | pull-down binding Z-score [2] | pull-down binding Z-score [3] | pull-down binding Z-score (TO-N3 (biotin conjugate))
43 | CGGAUUCUGAAAGAAGAAUCCG [IAV_invivo_NS1_NEP_8_Motif_5+IAV_invivo_NS1_NEP_8_Motif_5] | -0.902 | 0.432 | -0.255 | 0.0717
44 | CGGCAUCAUAUGGGUUGCAACUGAGGGAGCCUUGAAUACACCAAAAGAUCACAUUGGCACCCGCAAUCCUGCUAACAAUGCUG [SHAPE_invitro_SARS-CoV-2_Motif_522] | 0.334 | -0.511 | 0.0568 | -0.253
45 | CGGCGGGCACGUAGUGUAGCUAGUCAAUCCAUCAUUGCCUACACUAUGUCACUUGGUG [SHAPE_invitro_SARS-CoV-2_Motif_429] | 1.07 | 0.745 | 0.313 | 1.13
46 | CGGGACCAACGAGGAAAUGUACUACUGUCUCCCG [IAV_invivo_PB2_1_Motif_23+IAV_invivo_PB2_1_Motif_23] | 0.354 | -0.431 | 0.118 | -0.196
47 | CGGGCUUAUGUUGCUCG | -0.956 | -0.429 | -0.43 | -0.791
48 | CGGGGCGGGAGGGGAAGGGACGCCCG [hsa-mir-6850] | 5.1 | 6.93 | 7.75 | 6.39
49 | CGGUUGCUUGGUCAGCAAGUGCAUGUCAUGAUGGCAUGGGCUGGCUAACAAUCG [IAV_invivo_NA_6_Motif_7+IAV_invivo_NA_6_Motif_7] | -0.222 | -0.929 | -0.69 | -0.939
50 | CGUGGUAUUCUUGCUAGUUACACUAGCCAUCCUUACUGCG | -0.427 | -0.913 | -0.37 | -1.1
51 | CGUUCGGAUGCUCGAACUGCACCUCAUGGUCAUGUUAUGGUUGAGCUGGUAGCAGAACUCGAAGGCAUUCAGUACG [SHAPE_invitro_SARS-CoV-2_Motif_11] | 1.57 | -0.289 | -0.454 | 0.0804
52 | CUAACAAUCUAGUUGUAAUGGCCUACAUUACAGGUGGUGUUGUUCAG [SHAPE_invivo_SARS-CoV-2_Motif_39] | -0.761 | -0.352 | -0.607 | -0.379
53 | CUAACAUGCUUAG [SHAPE_invitro_SARS-CoV-2_Motif_280] | -0.734 | 0.709 | -0.299 | 0.578
54 | CUAACUGAGAAUAAAUAUUCUCAAUUAG | -1.87 | -0.985 | -0.937 | -1.59
55 | CUAAGUCACUAACUGAGAAUAAAUAUUCUCAAUUAGAUGAAGAG | -0.981 | -1.02 | -0.135 | -1.15
56 | CUAAUAACACUAAAGGUUCAUUGCCUAUUAAUGUUAUAG | -0.904 | 0.171 | -0.0592 | -0.0515
57 | CUACAAAGCAACCAUGAUCUGUAUUGUCAAGUCCAUGGUAAUGCACAUGUAG | 0.374 | -0.654 | -0.092 | -0.227
58 | CUACACUAGUGCCACAAGAGCACUAUGUUAG | 0.417 | -0.402 | -0.213 | -0.127
59 | CUAGGUUUUUCUAUGUACUUGG | -0.376 | 1.15 | 0.313 | 0.825
60 | CUAGUUGUGAUGCAAUCAUGACUAG | -1.39 | -0.351 | -0.444 | -0.883
61 | CUAUACAUUCUUUAAGAGUUUGUGUAG | -1.28 | -0.365 | -0.294 | -0.583
62 | CUAUACUGUUACUAGAUCAGGCAUUAGUGUCUGAUGUUGGUGAUAGUGCGG | -0.582 | -0.845 | -0.622 | -0.939

— the supplement of paper PMC11865577
